Assay in all cases: cell-based or functional assay
Experiment [1] addresses T1, human CGRP receptor (CLR/RAMP1), transiently transfected in Cos 7 cells (human, UniProt Q16602 23-461; O60894 27-148).
For experiment [2], the target named is human AMY1(a) receptor (CTR/RAMP1), transiently transfected in Cos 7 cells (human), P30988.
The target of experiment [3] is CGRP receptor endogenously expressed by SK-N-MC human neuroblastoma-derived cells (human, UniProt Q16602 23-461; O60894 27-148).
The target in experiment [4] is T1, human CGRP receptor (CLR/RAMP1), …. The source holds these as a separate data set.
For experiment [5] the target is unchanged. This is another data set of the same source.

Where no end group is shown, it is not given here. The star is where a group is joined. Ethyl(2-palmitoyloxy) = CCCCCCCCCCCCCCCC(=O)OCC*

T1 sequence (Q16602 23-461, chain 1 of 2): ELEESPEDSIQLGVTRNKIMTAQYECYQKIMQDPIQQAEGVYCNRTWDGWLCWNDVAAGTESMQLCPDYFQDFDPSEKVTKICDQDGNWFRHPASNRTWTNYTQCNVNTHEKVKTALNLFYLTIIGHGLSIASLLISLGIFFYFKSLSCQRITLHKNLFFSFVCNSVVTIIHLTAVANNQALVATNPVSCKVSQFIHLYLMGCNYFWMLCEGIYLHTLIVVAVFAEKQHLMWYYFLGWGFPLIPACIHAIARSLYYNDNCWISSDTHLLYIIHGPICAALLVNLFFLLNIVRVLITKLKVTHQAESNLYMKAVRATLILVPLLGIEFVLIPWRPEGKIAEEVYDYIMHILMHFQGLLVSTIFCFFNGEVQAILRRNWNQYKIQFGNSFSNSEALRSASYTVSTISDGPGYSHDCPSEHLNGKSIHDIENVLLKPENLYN
T1 sequence (O60894 27-148, chain 2 of 2): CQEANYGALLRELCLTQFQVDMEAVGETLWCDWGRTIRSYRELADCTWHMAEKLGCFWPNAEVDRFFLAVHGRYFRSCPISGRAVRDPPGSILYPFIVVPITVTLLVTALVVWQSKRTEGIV
human AMY1(a) receptor (CTR/RAMP1), transiently transfected in Cos 7 cells (human), P30988, sequence (P30988 25-474, chain 1 of 2): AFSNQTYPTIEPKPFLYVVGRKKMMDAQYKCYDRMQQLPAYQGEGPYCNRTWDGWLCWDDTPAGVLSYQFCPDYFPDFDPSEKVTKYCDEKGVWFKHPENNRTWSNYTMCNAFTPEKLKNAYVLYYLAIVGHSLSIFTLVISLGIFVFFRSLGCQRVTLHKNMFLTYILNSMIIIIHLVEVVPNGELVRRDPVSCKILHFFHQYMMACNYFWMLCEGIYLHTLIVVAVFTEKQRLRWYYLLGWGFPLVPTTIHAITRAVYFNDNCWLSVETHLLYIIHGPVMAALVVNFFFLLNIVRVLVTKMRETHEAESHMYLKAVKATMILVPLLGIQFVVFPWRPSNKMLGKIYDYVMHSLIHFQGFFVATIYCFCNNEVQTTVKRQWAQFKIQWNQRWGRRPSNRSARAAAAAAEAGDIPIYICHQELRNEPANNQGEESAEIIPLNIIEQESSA
human AMY1(a) receptor (CTR/RAMP1), transiently transfected in Cos 7 cells (human), P30988, sequence (O60894 27-148, chain 2 of 2, further chain): as the sequence (O60894 27-148, chain 2 of 2) above
CGRP receptor endogenously expressed by SK-N-MC human neuroblastoma-derived cells, sequence (Q16602 23-461, chain 1 of 2): as the sequence (Q16602 23-461, chain 1 of 2) above
CGRP receptor endogenously expressed by SK-N-MC human neuroblastoma-derived cells, sequence (O60894 27-148, chain 2 of 2): as the sequence (O60894 27-148, chain 2 of 2) above

B1: K24C(S-Pam) CGRP8-37 A5 (peptide)
peptide: VTHRLAGLLSRSGGVVC(Ethyl(2-palmitoyloxy))NNFVPTNVGSKAF-NH2
On to B1, for which, in experiment [1], the “Fold change reduction in pA2 with wash” value turned out to be 14 fold. In experiment [2], this molecule showed an A2 (antilog of the negative pA2; cAMP assay, Cos 7) of 1.8 nM; an A2, with wash (cAMP assay, Cos 7) of 3.5 nM; an A2, without wash (cAMP assay, Cos 7) of 0.37 nM; a Fold change reduction in pA2 with wash of 9.6 fold. In addition, in experiment [2], the antagonist potency pA2, with wash (cAMP assay, Cos 7) stood at 8.45; the antagonist potency pA2, without wash (cAMP assay, Cos 7) turned out to be 9.43; the antagonist potency pKB (cAMP assay, Cos 7) came out at 8.75. For the same molecule, in experiment [3], the “A2 (antilog of the negative pA2; cAMP assay, SK-N-MC)” value worked out at 0.09 nM and the “antagonist potency pA2 (cAMP assay, SK-N-MC)” value was 10.1. Further, in experiment [4], the “A2 (antilog of the negative pA2; cAMP assay, Cos 7)” value was 6.8 nM; the “Selectivity (fold-difference CGRP vs. AMY1)” value was -4 fold; the “antagonist potency pKB (cAMP assay, Cos 7)” value stood at 8.17. In experiment [5], the “A2, with wash (cAMP assay, Cos 7)” value was determined as 0.74 nM; the “A2, without wash (cAMP assay, Cos 7)” value was 0.05 nM; the “antagonist potency pA2, with wash (cAMP assay, Cos 7)” value amounted to 9.13; the “antagonist potency pA2, without wash (cAMP assay, Cos 7)” value was determined as 10.3.

The values are drawn from patent US20200353088A1, “PEPTIDE CONJUGATE CGRP RECEPTOR ANTAGONISTS AND METHODS OF PREPARATION AND USES THEREOF” (Auckland UniServices Limited, priority 2017, published 2020).
